According to PMC3354570 (Structure(London, England:1993), 2012):

Target: the molecule itself
Test: AUC

B1: human apolipoprotein A-IV core domain, residues 64-335 (domain or fragment, UniProt P06727 84-355, looked up)
chain: ATELHERLAKDSEKLKEEIGKELEELRARLLPHANEVSQKIGDNLRELQQRLEPYADQLRTQVSTQAEQLRRQLTPYAQRMERVLRENADSLQASLRPHADELKAKIDQNVEELKGRLTPYADEFKVKIDQTVEELRRSLAPYAQDTQEKLNHQLEGLTFQMKKNAEELKARISASAEELRQRLAPLAEDVRGNLRGNTEGLQKSLAELGGHLDQQVEEFRRRVEPYGENFNKALVQQMEQLRQKLGPHAGDVEGHLSFLEKDLRDKVNSFF
- stoichiometry N: 2
